Laboratory results published in patent US20260060994A1, “GLYCOSYLATED COMPOSITIONS AND METHODS OF USE” (Cy Biopharma AG, priority 2023, published 2026).

B1: GLY73: glycosyltransferase (UGT), SEQ ID NO: 4 (protein)
chain: MEDAIVLYPSPGRGHLISMVELGKLILKNHPSFSITILILSEPNTNANSTAPNYVASSTTEYITTVNSTTPSITFHHLPPISEVPPSTSSFVELSYLIPRFNNQNLHQILKTISQTSKLKAFIIDFFCDAAFEVATNLDIPTYYFFTSGACYLAALLYRPTLHKKVDKSLKDLGNTLLDIPGLPPIQASDLPEPWKDRTSKEYQYSLNVAAHMAKSNGLLVNTFDLLETKAIKAISGGLCVPDRTTPPIFCIGPLISDSNQDVEDHECLNWLNSQPSRSVVFLCFGSLGLFSAKQLKEIAVGLENSGQRFLWVLRNPPSDNDKDPNLDELLPKGFLERTKEKGFVVKQWAPQVAVLRHDSVGGFVTHCGWNSVLEAVWCRVPMVGWPLYAEQRLNSVVLVEEIKLASGLNESEDGLVSAAELEKRVKELMDSEVGTEVRERVSGLRDEAVTAVKEGGSSHVALAKLAELWRQN
B2: GLY169: glycosyltransferase (UGT), SEQ ID NO: 26 (protein)
chain: MKKPELIFIPAPGVGHVISALEFAARLLGHDPRISITVLAIKAPFSSHLDAYTKSLVASQPRIALIDLPPVDPPPPELLRSVEHYVTVYIESYIPHVQRAVGEIQSSRSDSGSDRSVAGFVLDFFCTSMIDVADGFSLPSYIYLTSNAHFLDLMFHLPARHDQIGREARLSDPDLPLPNFANPVPVSVLPSAVLDGEAGGYAAYVKLARRFRDVRGIMVNTFMELERSALGSFSGGSWDGPAVYAVGPVIDPKGVPDPSLDRAHWEKIREWLDEQPPSSVVFLCFGSLGSFDADQVKEIASGIERSGHKFLWSLRPESSQSQLPVGFLERMRGRGIICGWTPQVEVLGHAAIGGFVSHCGWNSILESLWYGVPIVTWPIYAEQQLNAFTMVKELGLAVELRLDYKGQGIGGHLVPAEEIEKAVGRLMGDDAAETRKKVREMREAARNAVKEGGSSYDSIGRLIQDFINSIE
B3: GLY77: glycosyltransferase (UGT), SEQ ID NO: 8 (protein)
chain: MSTSELVFIPSPGAGHLPPTVELAKLLLHRDQRLSVTIIVMNLWLGPKHNTEARPCVPSLRFVDIPCDESTMALISPNTFISAFVEHHKPRVRDIVRGIIESDSVRLAGFVLDMFCMPMSDVANEFGVPSYNYFTSGAATLGLMFHLQWKRDHEGYDATELKNSDTELSVPSYVNPVPAKVLPEVVLDKEGGSKMFLDLAERIRESKGIIVNSCQAIERHALEYLSSNNNGIPPVFPVGPILNLENKKDDAKTDEIMRWLNEQPESSVVFLCFGSMGSFNEKQVKEIAVAIERSGHRFLWSLRRPTPKEKIEFPKEYENLEEVLPEGFLKRTSSIGKVIGWAPQMAVLSHPSVGGFVSHCGWNSTLESMWCGVPMAAWPLYAEQTLNAFLLVVELGLAAEIRMDYRTDTKAGYDGGMEVTVEEIEDGIRKLMSDGEIRNKVKDVKEKSRAAVVEGGSSYASIGKFIEHVSNVTI
B4: GLY164: glycosyltransferase (UGT), SEQ ID NO: 24 (protein)
chain: MKEKAELVFIPSPSVGHLVSVIVFAKRLLLLDRDNAAGSNNSFSITVLVMQEHTATASDNDAHIKSLAGAGATADVSIRFIGVPKMNPPPLDYFKSPEKFITEYVDSHKDCIKEAIIEHVLNNNVKIAGLVLDFFCSSMIDTANELGVPSYVFFTSGAAFLGFVLHLPTRGGEEFEESEADSADIFTYANPVPYRVLPSLCFNKHGGFSAFENFGRRFKETKGIIVNTFEELESHAVEYLMKCDGVPPVYNVGPMIDLHGDIHARPRGGGTQRDEIIRWLDDQPASSVVFLCFGSMGSFGEEQIKEVASGLGKSGVRFLWSLRKTPPKDRPEMPGEYTCVEDILPRGFQERSKGRGMICGWAPQKEVLAHSAIGGFVSHCGWNSILESVWFGVPIVTWPIYAEQQINAFQMVRDLGLAVELRLDYRRGTENHVMADELARAVGCVMDGDSEVRKRVKEVSEKARLALRDGGSSYAATGRLIEDLFGSVS
B5: GLY108: glycosyltransferase (UGT), SEQ ID NO: 14 (protein)
chain: MGSQQEHIVMLPFMAQGHIIPFLALAKQIQQRTGFTITIANTPLNIQYLRTTISTSDDSSRPCIRLAELPFCSSDHGLPPNTENTEALSFHQIVDLFHASKTLQAPFHSLVSGIIEKEGRPPLCIISDVFFGWATEVAKSLGTSNVTFTTGGGYGTAAYISLWQNLPHRATDSDYFALPGFPDSCRFHITQLHQYLRAADGTDAWSRYFQPQIALSLDSSGWLCNTAEEIEPHGLEILRNYVKPPVWTIGPLLPPALLNHSLSSGSSIFGQRAWKVSGVSPEKCLDWLDKHPQSSVLYISFGSQNTISPSQMMELALGLEDSGKPFIWVIRPPVGFDIEGEFRAEWLPQNFEQRMAESNQGLIVHKWAPQLEILSHKSTGVFLSHCGWNSVMESLCVGVPIIGWPLAAEQCYNSKMLTEDMGVAVELTRGRQGALERKEVKRVIELVMDSKGKGEEMKKKATEIGEKIRDAMREGGSSLKAMDDFVSTMLSKRQGY
B6: GLY119: glycosyltransferase (UGT), SEQ ID NO: 16 (protein)
chain: MGSLGHQLHIFFLPFFAHGHMIPSVDMAKLFASRGIKTTIITTPLNAPFFSKTIQKTKELGFDINILTIKFPAAEAGLPEGYENTDAFIFSENAREMTIKFIKATTFLQAPFEKVLQECHPDCIVADVFFPWATDAAAKFGIPRLVFHGTSNFALSASECVRLYEPHKKVSSDSEPFVVPDLPGDIKLTKKQLPDDVRENVENDFSKFLKASKEAELRSFGVVVNSFYELEPAYADYYKKVLGRRAWNVGPVSLCNRDTEDKAGRGKETSIDHHECLKWLDSKKPNSVVYICFGSTTNFSDSQLKEIAAGLEASGQQFIWVVRRNKKGQEDKEDWLPEGFEERMEGVGLIIRGWAPQVLILDHEAIGAFVTHCGWNSTLEGITAGKPMVTWPIFAEQFYNEKLVTDVLKTGVGVGVKEWFRVHGDHVKSEAVEKTITQIMVGEEAEEMRSRAKKLGETARKAVEEGGSSYSDFNALIEELRWRRP
B7: GLY146: glycosyltransferase (UGT), SEQ ID NO: 18 (protein)
chain: MKKSELVFIPAPGIGHLVSALEFAKRLIDHDDRHSITVLSMKFPFTPFADEFTKSLVASHHGIQVIDLPPVDPPPPELLNSPENFVCAFIESLIPHVRNTLTDMLSSSSRVSGLVLDFFCLSLIDVGNELGVPSYMFLTSNSGFLGLMLHIPIRHNQKSAEFEESDAEVSLPGFWNPVPVSVLPGAVFDKDGGYSAYLKLAKRFRDTKGIIVNTFSELELDSVKSLSDGETPPVYMVGPVIDLKGQPNPSLDQAQREKIMHWLDDQPESSVVYLCFGSMGTFGAIQLREIATGLERSGHRFLWSMRVPQPAKGPDDILPEGFSERIGGRGLICGWAPQMEVLAHKAIKGFVSHCGWNSILESLWFGVPIATWPIYAEQQMNAFRMVKEFGLAVEMKLDYRLGDLVMADEIEIAVRRLMDDSDELRKKVKEMGEMARQAIIEGGSSYIAVGQLIEDILGSISCDN

assay: Glycosylation of 4-OH-DMT by GLY enzymes (UDP-glucose), LC-UV/MS; type: biochemical; conditions: conditions of Examples 1 and 2 repeated for 4-HO-DMT; estimate from UV peak areas
Procedure: (§1) The assay conditions were: • 100 mM Tris-HCl, pH 7.4 • 5 mM MgCl2 • 1 mM KCl • 1.25 mM UDP-glucose • 0.5 mM 4-OH-MET • 5% (v/v) DMSO • 0.1 U/uL Fast AP phosphatase • 25% (v/v) GLY enzyme
(§2) Incubation was 24 house at 30° C. Reactions were terminated adding 3 volumes of 75% (v/v) ethanol.
(§3) LC separation was performed using an Agligen 1290 Infinity II UHPLC equipped with a Phenomenex Kinetex XB-C18 column (1.7 um, 100 angstroms, 100×2.1 mm) and 4-HO-MET was detected by absorbance at 210 nm and 268 nm with an Agilent 1260 Infinity II DAD.
(§4) 0.1% Formic acid in water (A) and 0.1% Formic acid in acetonitrile (B) were used as the mobile phases for the elution gradient, with a flow rate of 0.4 ml/min. Retention time for 4-HO-MET using this type of instrument under these condition was 2.6 min. The system was coupled to an Ultivo Triple Quadrupole MS. To verify the presence of possible glycoside products, as SIM (Selected Ion Monitoring) method was used on the MS to analyse for the m/z 381 (theoretical mass to chart ratio of 4-HO-MET-glucoside) and m/z 219 (theoretical mass to charge ratio of 4-HO-MET).
(§5) The enzymes giving the additional peak putatively corresponding to the 4-HO-MET-β-D-glucoside are listed below. […] A correct quantification of the product is not possible without a standard for the specific molecule. However, based on the assumption that the ratio area-to-concentration in the UV chromatograms will be similar to 4-HO-MET, estimates of the relative abundance for the additional peak are also given, expressed as percentage of converted 4-HO-MET. GLY enzymes hits are ranked according to their estimated conversion efficiency.
(§6) The experiments described in Examples 1 and 2 above were repeated for 4-OH-MiPT, 4-HO-DMT and 5-HO-DMT
Below is the corresponding data for 4-OH-DMT and 5-HO-DMT.

Molecule	4-OH-DMT GLY %
B1	14.0%
B2	25.0%
B3	30.2%

assay: Glycosylation of 4-HO-MET by GLY enzymes (UDP-glucose), LC-UV/MS; type: biochemical; conditions: 0.5 mM 4-OH-MET, 1.25 mM UDP-glucose, 25% (v/v) GLY enzyme, 24 h at 30° C.; estimate from UV peak areas
Procedure: 4-HO-MET was dissolved in 100% (v/v) DMSO to a concentration of 10 mM. The solution was stored at −20° C. prior to use.
FastAP phosphatase (1 U/uL) from ThermoFisher Scientific (catalog no. EF0651).
GLY enzyme suspensions contain 10 mM Tris-HCl at pH7.4, 250 mM imidazole and 50% (v/v) glycerol.
as §1, §2, §3, §4
As standard, 4-HO-MET solutions at a concentrations of 500, 250, 125, 62.5, and 31.25 uM were prepared from the 10 mM stock and used for caliboration.
A representative example of the chromatograms obtained with a wavelength of 268 nm for the standard solutions resuspended in the reaction buffer, and the corresponding MS-SIM signal, is shown in FIG. 16. The peak corresponding to 4-HO-MET is indicated.
When analyzing the GLY reactions, 30 of them gave an additional peak with retention time 2.2 min (i.e. in the expected region for a 4-HO-MET glucoside) and molecular mass compatible with the expected glucoside product, together with a corresponding decrease in substrate concentration, compared to the no-enzyme controls.
The method was repeated using various GLY enzymes to produce 4-HO-MET glucosides.
as §5

Molecule	4-OH-MET GLY % (percentage of converted 4-HO-MET)
B4	10.2%
B1	7.4%
B2	52.3%
B5	8.7%
B6	6%
B3	66.5%

assay: Glycosylation of 4-OH-EPT by GLY enzymes (UDP-glucose), LC-UV/MS; type: biochemical; conditions: conditions of Examples 1 and 2 repeated for 4-OH-EPT; estimate from UV peak areas
Procedure: as §1, §2, §3, §4, §5
The experiments described in Examples 1 and 2 above were repeated for 4-OH-EPT.
Below is the corresponding data for 4-OH-EPT.

Molecule	4-OH-EPT GLY % (percentage of converted 4-OH-EPT)
B2	33%
B3	66.2%
B7	5.3%

assay: Glycosylation of 4-OH-MiPT by GLY enzymes (UDP-glucose), LC-UV/MS; type: biochemical; conditions: conditions of Examples 1 and 2 repeated for 4-OH-MiPT; estimate from UV peak areas
Procedure: as §1, §2, §3, §4, §5, §6
Below is the corresponding data for 4-OH-MiPT.

Molecule	4-OH-MiPT GLY % (percentage of converted 4-OH-MiPT)
B2	71.5%
B3	85%
B7	23.2%
